For experiment [1], the target named is T1, Ig-1 domain fragment of human Tyro3 ECD, His-Strep tagged (human).
T1 chain: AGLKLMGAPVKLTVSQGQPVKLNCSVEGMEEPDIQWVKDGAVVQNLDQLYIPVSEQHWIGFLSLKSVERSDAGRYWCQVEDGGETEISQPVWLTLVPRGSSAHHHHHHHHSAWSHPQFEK
The experiment in a line: sandwich ELISA, Strep-tagged fragment captured on StrepMAB plate, scFv 10 µg/mL (Table 17), anti-FLAG-HRP. In general terms: An ELISA detects its analyte on a solid surface through an enzyme-linked reagent.

In experiment [2] the target is T2, Tyro3 ECD FNIII 1-FNIII-2.
T2 construct: also called FNIII 1 + FNIII 2 fragment of hTyro3 ECD, His-Strep tagged
T2 fragment: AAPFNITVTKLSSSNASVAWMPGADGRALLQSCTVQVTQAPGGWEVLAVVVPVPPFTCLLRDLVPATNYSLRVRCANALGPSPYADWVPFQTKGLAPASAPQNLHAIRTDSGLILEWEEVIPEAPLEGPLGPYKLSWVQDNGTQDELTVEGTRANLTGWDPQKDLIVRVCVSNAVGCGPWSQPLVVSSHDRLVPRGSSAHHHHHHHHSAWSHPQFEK
Described as above.

Experiment [3] deals with T3, Ig-1 and Ig-2 domains fragment of human Tyro3 ECD, His-Strep tagged (human).
T3 construct: also called Ig1-Ig2 fragment
T3 chain: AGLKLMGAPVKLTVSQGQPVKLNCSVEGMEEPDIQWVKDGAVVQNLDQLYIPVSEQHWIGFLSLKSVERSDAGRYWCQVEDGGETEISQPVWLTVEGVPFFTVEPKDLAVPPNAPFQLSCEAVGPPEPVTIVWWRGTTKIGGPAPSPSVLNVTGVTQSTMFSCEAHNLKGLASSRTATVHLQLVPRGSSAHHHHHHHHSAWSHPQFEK
The description is as above.

Experiment [4] concerns the target T4, extracellular domain of human Mer, Fc fusion (R&D Systems 891-MR-100) (human, UniProt Q12866 21-505).
T4 construct: Bought protein; also called hMer; hMER; not shown: Fc of the bought ECD-Fc fusion
T4 sequence: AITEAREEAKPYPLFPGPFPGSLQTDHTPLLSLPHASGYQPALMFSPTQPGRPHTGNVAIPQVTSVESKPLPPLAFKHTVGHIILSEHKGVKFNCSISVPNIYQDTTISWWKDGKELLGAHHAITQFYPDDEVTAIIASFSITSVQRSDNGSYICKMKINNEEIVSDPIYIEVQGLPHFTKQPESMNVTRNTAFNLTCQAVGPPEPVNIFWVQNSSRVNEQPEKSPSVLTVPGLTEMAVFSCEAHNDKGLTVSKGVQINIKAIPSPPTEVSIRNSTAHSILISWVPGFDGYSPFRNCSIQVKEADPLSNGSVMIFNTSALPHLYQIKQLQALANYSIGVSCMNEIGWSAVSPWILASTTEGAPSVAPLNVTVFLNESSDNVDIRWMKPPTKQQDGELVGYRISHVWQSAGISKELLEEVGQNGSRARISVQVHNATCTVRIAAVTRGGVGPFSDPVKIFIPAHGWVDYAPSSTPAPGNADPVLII
Briefly: ELISA, ECD coated 1 µg/well, scFv 1 µg/mL, anti-tag-HRP. How it is done: (§1) Extracellular domains of hTyro 3 (859-DK-100), hAxl (154-AL-100) or hMer (891-MR-100) from R&D Systems were coated onto 96-wells microtiter plates (1 μg/well) in PBS and incubated overnight at 4° C. Plates were washed three times with PBS and blocked in PBS/3% BSA for 1 hour at RT. Plates were washed as above and scFvs were added at 1 μg/mL (diluted in PBS) and incubated for 1 hour at RT. Plates were washed three times with PBST (PBS/0.01% Tween-20) and secondary antibody anti-FLAG-HRP was added (Abcam, ab49763, 1/5000 dilution in blocking buffer) for 1 hour at RT. Plates were washed as above with PBST and signal was developed with Ultra-TMB reagent (Thermo Scientific, 34028).

Another experiment has as its target T5, hTyro 3-ECD.
T5 construct: not the His-Strep tagged ECD m13; also called Recombinant Human Dtk-Fc Chimera (R&D Systems 859-DK-100); not shown: Human Fc, and any linker, of the commercial chimera (R&D Systems 859-DK-100)
T5 chain: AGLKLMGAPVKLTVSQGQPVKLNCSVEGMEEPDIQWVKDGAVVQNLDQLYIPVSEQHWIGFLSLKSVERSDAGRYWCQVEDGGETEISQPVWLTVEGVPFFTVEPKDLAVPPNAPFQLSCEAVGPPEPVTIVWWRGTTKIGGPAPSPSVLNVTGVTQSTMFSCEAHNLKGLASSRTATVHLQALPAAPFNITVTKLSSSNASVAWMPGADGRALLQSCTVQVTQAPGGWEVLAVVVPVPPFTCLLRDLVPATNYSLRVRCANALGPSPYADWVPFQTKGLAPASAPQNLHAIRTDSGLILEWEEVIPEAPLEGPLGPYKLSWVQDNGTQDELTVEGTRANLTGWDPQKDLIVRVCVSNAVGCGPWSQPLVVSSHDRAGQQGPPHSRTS
Described as above. How it is done:
as §1

Another experiment deals with T6, Tyro3 ECD Ig2-FNIII 1.
T6 construct: also called Ig2 + FNIII 1 fragment of hTyro3 ECD, His-Strep tagged
T6 fragment: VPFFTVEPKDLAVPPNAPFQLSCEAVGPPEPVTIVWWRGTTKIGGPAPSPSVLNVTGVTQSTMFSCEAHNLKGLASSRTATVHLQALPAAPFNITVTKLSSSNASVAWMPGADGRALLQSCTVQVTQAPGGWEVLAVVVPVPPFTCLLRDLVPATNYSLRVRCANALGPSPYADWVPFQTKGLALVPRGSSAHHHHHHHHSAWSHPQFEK
The experiment in a line: sandwich ELISA, Strep-tagged fragment captured on StrepMAB plate, scFv 10 µg/mL (Table 17), anti-FLAG-HRP.

Substitutions are numbered along the chain they refer to.

B1: anti-Tyro3 scFv 2414 (scFv, V domains shown)
VH: EVQLVQSGADVKKPGASLTISCQASGYTFTDYWISWVRQKPGKGLEWMGQINRHASNTMYGPSFQGHVTISADRSTATAYLQWRSLEASDTAMYYCVRSGGATSGGTIPEYYQHWGPGTLVTVSS
VL: SYELTQPPSVSVSPGQTARITCSGDALPKKYAYWYQQKSGQAPVLVIYEDWKRASGIPERFSGSSSGTMATLTISGAQVEDEADYYCYSQERKGNYFVFGGGTKLTVL
notes: Tested as a single-chain Fv made in E. coli
Regarding B1, the binding result in experiment [1] was “binds”; in experiment [2], “no binding (tested: 10 µg/mL)”; in experiment [3], “binds”; in experiment [4], “no binding (tested: 1 µg/mL)”; with hTyro 3-ECD, “binds”.

B2: anti-Tyro3 scFv 2717 (scFv, V domains shown)
VH: EVQLVQSGADVKKPGASLTISCQASGYTFTDYWISWVRQKPGKGLEWMGEIFLPPSTTVYGPSFQGHVTISADRSTATAYLQWRSLEASDTAMYYCVRQTRLTSGGTIPEYYQHWGPGTLVTVSS
VL: B1 VL with W51N, A54G, Q90K, E91S, R92P, K93E, F97M
notes: as for B1
Turning to B2, the binding result is on record as “binds” in experiment [1]; “no binding (tested: 10 µg/mL)” in experiment [2]; “no binding (tested: 10 µg/mL)” in experiment [3]; “no binding (tested: 10 µg/mL)” with Tyro3 ECD Ig2-FNIII 1; “no binding (tested: 1 µg/mL)” in experiment [4].

B3: anti-Tyro3 scFv 2711 (scFv, V domains shown)
VH: B1 VH with N52R, R53G, H54Q, A55H, N57S, M59L, S99H, G101A, A102S
VL: B1 VL with W51A, A54S, Q90L, E91S, R92D, K93S
notes: as for B1
With B3, the binding result in experiment [1] was “binds”; in experiment [2], “no binding (tested: 10 µg/mL)”; in experiment [3], “binds”; in the experiment with Tyro3 ECD Ig2-FNIII 1, “binds”; in experiment [4] it was “no binding (tested: 1 µg/mL)”; with hTyro 3-ECD, “binds”.

B4: anti-Tyro3 scFv 2709 (scFv, V domains shown)
VH: B1 VH with Q50A, N52S, H54N, A55G, N57T, M59Y, A102L, T122P
VL: B1 VL with W51K, A54V, Q90L, E91A, R92V, K93D, F97G
notes: as for B1
Take B4: the binding result was “binds” in experiment [1]; “no binding (tested: 10 µg/mL)” in experiment [2]; “binds” in experiment [3]; “no binding (tested: 10 µg/mL)” in the experiment with Tyro3 ECD Ig2-FNIII 1; “no binding (tested: 1 µg/mL)” in experiment [4]; “binds” with hTyro 3-ECD.

B5: anti-Tyro3 scFv 2412 (scFv, V domains shown)
VH: B1 VH with Q50R, N52R, R53P, H54L, A55L, N57H, G100W, G101L
VL: B1 VL with W51A, A54V, Q90A, E91S, R92A, K93N, F97R
notes: as for B1
As to B5, the binding result in experiment [1] is listed as “binds”; in experiment [2], “no binding (tested: 10 µg/mL)”; in experiment [3], “binds”; with Tyro3 ECD Ig2-FNIII 1, “binds”; in experiment [4], “no binding (tested: 1 µg/mL)”; with hTyro 3-ECD, “binds”.

B6: anti-Tyro3 scFv 2713 (scFv, V domains shown)
VH: B1 VH with Q50R, N52S, A55G, N57Q, M59Y, S99A, A102Q
VL: B1 VL with W51H, Q90I, E91S, R92P, K93A, F97G
notes: as for B1
Take B6: the binding result is on record as “binds” in experiment [1]; “no binding (tested: 10 µg/mL)” in experiment [2]; “binds” in experiment [3]; “binds” with Tyro3 ECD Ig2-FNIII 1; “no binding (tested: 1 µg/mL)” in experiment [4]; “binds” with hTyro 3-ECD.

B7: anti-Tyro3 scFv 2415 (scFv, V domains shown)
VH: B1 VH with N52R, R53G, H54P, N57A, M59H, S99H, G100Q, G101Q, A102Q
VL: B1 VL with W51K, A54I, Q90T, E91S, R92T, K93G, F97M
notes: as for B1
For B7, the binding result in experiment [1] is on record as “binds”; in experiment [2], “no binding (tested: 10 µg/mL)”; in experiment [3], “binds”; in the experiment with Tyro3 ECD Ig2-FNIII 1 it was “binds”; in experiment [4], “no binding (tested: 1 µg/mL)”; with hTyro 3-ECD, “binds”.

B8: anti-Tyro3 scFv 2410 (scFv, V domains shown)
VH: B1 VH with N52V, R53P, H54R, N57R, M59N, S99P, G100Y, G101F, A102Q
VL: B1 VL with W51E, K93N, F97A
notes: as for B1
Consider B8, for which the binding result in experiment [1] is on record as “binds”; in experiment [2] it was “no binding (tested: 10 µg/mL)”; in experiment [3] it was “binds”; in experiment [4] it was “no binding (tested: 1 µg/mL)”; with hTyro 3-ECD, “binds”.

Source of the values: US20180105596A1 (ELSALYS BIOTECH, published 2018).
